# Source: publication PMC3607736, “HAD hydrolase function unveiled by substrate screening: enzymatic characterization of Arabidopsis thaliana subclass I phosphosugar phosphatase AtSgpp” (Planta, 2012)
# B1: AtSgpp (MBP-AtSgpp, At2g38740) (Arabidopsis thaliana) (protein)
# chain: MNGFSDLNPSESKPSLSQLAPLEAILFDVDGTLCDSDPIHLIAFQELLQEIGFNNGVPIDEKFFVENIAGKHNSEIALLLFPDDVSRGLKFCDEKEALYRKIVAEKIKPLDGLIKLTKWIEDRGLKRAAVTNAPKENAELMISKLGLTDFFQAVILGSECEFPKPHPGPYLKALEVLNVSKEHTLVFEDSISGIKAGVAAGMPVIGLTTGNPASLLMQAKPAFLIENYADPKLWAVLEELDNKS
# notes: N-terminal MBP fusion (pMAL-c2X, Ile-Ser-Glu-Phe linker before Met1); E. coli TB1, amylose resin
# Substrate: O=P(O)(O)OCC(O)CO
# Assay: inorganic phosphate release (Ames), non-linear regression
# Format: biochemical, Arabidopsis thaliana
# Details: 20 mM Tris-HCl pH 7.0, 5 mM MgCl2, 32 °C, apparent Km, MBP fusion
# Text: inorganic phosphate release (Ames), non-linear regression on AtSgpp (MBP-AtSgpp, At2g38740)
protein,measurement,value
B1,Km,(7.3 ± 0.2) × 10^−3 M
same,Vmax,0.498 µmol/min
same,kcat,23 ± 3 s⁻¹
same,kcat/Km,3100 M⁻¹ s⁻¹
